Reference: patent publication US20050064507A1, “Determining kinase specificity” (priority 2003, published 2005)

Experiments:
[1] = biological target: T1, PKC-theta (Homo sapiens, UniProt Q04759); assay: In vitro kinase assay: peptide phosphorylation by PKC-theta; assay type: biochemical; conditions: for PKC theta phosphorylation: normalized to best substrate
T1 construct: His-tag; made in house; host or cells: baculovirus-infected Sf9 cells
Procedure, shortened: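 Recombinant human PKC-theta, expressed in baculovirus-infected Sf9 cells and purified on a nickel chelating column, was incubated with biotinylated peptides, 100 μM ATP containing ^32P-gamma ATP, and PKC buffer with CaCl2, MgCl2, phosphatidyl serine and PMA at 30° C. Reactions were stopped with ATP/EDTA. Peptides were captured on streptavidin-coated plates, and phosphorylation was normalized to the best substrate.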

[2] = biological target: T2, PKC-alpha (Homo sapiens, UniProt P17252); assay: In vitro kinase assay: peptide phosphorylation by PKC-alpha; assay type: biochemical; conditions: for PKC alpha phosphorylation: normalized to best substrate
T2 construct: purchased Calbiochem
Protocol: Catalytically active preparations of the kinases of interest were either purchased or prepared. Purchased and tested active kinase preparations including the following: PKC-alpha, PKC-delta, PKC-epsilon, PKC-zeta, PKC-mu, PKA, PKG from Calbiochem, ROK alpha/ROCK-II, active from Upstate Biotechnology, and AKT1 from Panvera.
The conditions of the kinase assay and the amount of active kinase used varied with the kinase and with the accuracy needed. For a typical experiment, 5-20 ng of kinase was used per well and each peptide pool was assayed in duplicate wells. Note that the absolute amount of kinase used was not usually a critical parameter, because the desired information related to specificity of the kinase not its absolute activity, and robustness of the assay depends on comparisons of the same amount of kinase on different peptides. The combination of kinase concentration and assay duration was modified to assure that the stoichiometry of peptide phosphorylation never exceeded 5%. The choice of kinase buffer depended on the kinase being analyzed. For studies of PKC, 100 mM HEPES, 0.05% Triton-X100, 1 mM CaCl2, 20 mM MgCl2, 0.2 mg/ml phosphatidyl serine (Avanti Polar Lipids), PMA 100 ng/ml was typically used. The lipid stock was prepared by transferring 3 mg phosphatidyl serine into iced mixture of 450 μl water plus 50 μl of 10% Triton-X100, sonicating 10 times on ice for 1 sec each.
The kinase reaction mixture was assembled by sequential addition to a tube held on ice of: 5 μl peptide (100 μM for final concentration of 10 μM), 15 μl of kinase (typically 5 ng/well, in appropriate kinase buffer), 30 μl of ATP (1 uCi/well of ^32P-gamma ATP in a stock of 167 μM cold ATP in the kinase buffer; for final concentration for 100 μM ATP). The mixture was rapidly warmed to desired reaction temperature (30° C. for PKC) and incubated for the desired duration (usually 10 minutes). The kinase assay was terminated by transfer to 4° C. water batch, and rapid addition of an equal volume (50 μl) of stop solution [0.1M ATP+0.1M EDTA in water, pH 8].
The peptides were then captured from the reaction mixture by transfer to a Reacti-Bind Streptavidin High Binding Capacity Coated Plates (HBC) (Pierce Biotechnology) as follows. The HBC plates were pre-rinsed three times with PBS/Tween PBS/Tween20 0.05% (PBS/Tween). Part of all of the reaction mixture was then transferred wells of a HBC plate pre-filled with 90 μl of phosphate-buffered saline (PBS); typically each aliquots of each phosphorylation reaction were transferred to duplicate HBC plates to assure accuracy by additional replication
For kinase assays done at the standard peptide concentration of 10 μM, the peptide concentration in the reaction mixture becomes 5 μM after addition of the stop solution; consequently 10 μl of the reaction (50 pMoles of peptide) was transferred to the HBC plate. More generally, the amount of reaction mixture transferred was estimated to be about 50 pMoles of peptide. […] The HBC plates were incubated for 0.5 to 1.5 hr at room temperature for complete binding of biotinylated peptides to plate-bound streptavidin. The HBC plates were then washed extensively with PBS/Tween. Five washes were done routinely and additional wash steps were added if the wash solution removed from the plate had measurable radioactivity as detected using a Geiger counter. This step is essential to obtaining a good the signal to noise ratio because the fraction of radioactivity incorporated in the peptides was a tiny fraction of the total in the reaction mixture. The wells were air-dried. A volume of 40-50 μl of microScint-20 (Packard Instruments) was added to each well. The plates were covered with stick-on film sheet. Radioactive emissions were measured in a TopCount NXT Microplate Scintillation and Luminescence Counter (Packard Instruments). Typically samples were counted for 5 minutes (or more) to improve the signal to noise ratio when counts were low. […]

T1 sequence (Q04759 whole entry): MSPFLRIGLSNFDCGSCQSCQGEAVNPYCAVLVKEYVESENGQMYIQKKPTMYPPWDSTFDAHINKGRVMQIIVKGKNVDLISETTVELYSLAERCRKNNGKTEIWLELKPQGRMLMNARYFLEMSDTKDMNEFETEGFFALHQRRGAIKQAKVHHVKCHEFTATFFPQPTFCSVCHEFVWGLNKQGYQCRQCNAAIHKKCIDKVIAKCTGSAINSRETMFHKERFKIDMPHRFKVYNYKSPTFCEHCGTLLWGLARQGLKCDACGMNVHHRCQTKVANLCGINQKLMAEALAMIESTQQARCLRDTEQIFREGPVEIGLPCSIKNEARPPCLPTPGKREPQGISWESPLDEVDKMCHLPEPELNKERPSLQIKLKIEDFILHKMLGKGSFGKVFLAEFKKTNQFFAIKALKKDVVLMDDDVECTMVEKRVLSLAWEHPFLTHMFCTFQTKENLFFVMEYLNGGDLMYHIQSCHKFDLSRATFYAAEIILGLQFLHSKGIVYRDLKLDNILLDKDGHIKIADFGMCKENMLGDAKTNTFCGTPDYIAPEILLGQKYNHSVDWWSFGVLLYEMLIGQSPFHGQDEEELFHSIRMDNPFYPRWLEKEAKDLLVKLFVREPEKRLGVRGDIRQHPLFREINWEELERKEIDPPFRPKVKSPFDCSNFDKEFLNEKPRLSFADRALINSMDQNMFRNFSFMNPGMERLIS

| Substance | PKC theta phosphorylation [1] | PKC alpha phosphorylation [2] | phosphorylation by PKC theta ([1]; peptide concentration 1 uM) | phosphorylation by PKC theta ([1]; peptide concentration 10 uM) | phosphorylation by PKC alpha ([2]; peptide concentration 1 uM) | phosphorylation by PKC alpha ([2]; peptide concentration 10 uM) |
| --- | --- | --- | --- | --- | --- | --- |
| 113 (GENVLKKSMKSRVKG) [compound 113] | 10% | 16% | – | – | – | – |
| 120 (AKRRRLSSLRASTSK) [compound 120] | – | – | 51 | 51 | 55 | 58 |
| 144 (LSSMFGTLPRKSRKGSVRKQ) [compound 144] | – | – | 35 | 22 | 31 | 20 |
| 137 (PSKSPSKKKKKFRTPSFLKK) [compound 137] | – | – | 40 | 19 | 34 | 38 |
| 77 (KKKKRASFKRKSSKKG) [compound 77] | 74% | 100% | – | – | – | – |
| 125 (PLKEKKRERKTSSKSSVRKR) [compound 125] | – | – | 39 | 100 | 34 | 31 |
| 107 (QKRHARVTVKYDRRE) [compound 107] | 40% | 18% | – | – | – | – |
| 93 (AARKKRISVKKKQEQ) [compound 93] | 40% | 34% | – | – | – | – |
| 108 (KATTKKRTLRKNDRK) [compound 108] | 32% | 19% | – | – | – | – |
| 85 (RFARKGSLRQKNV) [compound 85] | 46% | 42% | – | – | – | – |
| 156 (SAQITIPKDGQKRKKSLRKK) [compound 156] | – | – | 18 | 23 | 9 | 11 |
| 84 (QKKSRLRRRASQLKI) [compound 84] | 87% | 39% | – | – | – | – |
| 133 (LEKRGMLGKRPRRKSSRRKK) [compound 133] | – | – | 46 | 53 | 17 | 16 |
| 114 (KKKKRASFKRKSSKKG) [compound 114] | – | – | 100 | 86 | 100 | 100 |
| 82 (PRLIRRGSKKRPAR) [compound 82] | 49% | 61% | – | – | – | – |
| 109 (KEVVRTDSLKGRRGR) [compound 109] | 9% | 21% | – | – | – | – |
| 163 (PPRTPGWHQLQPRRVSFRGE) [compound 163] | – | – | 14 | 11 | 30 | 10 |
| 89 (EYLERRASRRRAV) [compound 89] | 60% | 37% | – | – | – | – |
| 103 (LLKKRDSFRTPRDSKLE) [compound 103] | 24% | 32% | – | – | – | – |
| 90 (AQIVKRASLKRGKQ) [compound 90] | 38% | 40% | – | – | – | – |
| 139 (RPTPGDGEKRSRIKKSKKRK) [compound 139] | – | – | 31 | 17 | 39 | 44 |
| 162 (KKKFSFKKPFKLSGLSFKRN) [compound 162] | – | – | 14 | 13 | 17 | 19 |

| Substance | PKC theta phosphorylation [1] | PKC alpha phosphorylation [2] | phosphorylation by PKC theta ([1]; peptide concentration 1 uM) | phosphorylation by PKC theta ([1]; peptide concentration 10 uM) | phosphorylation by PKC alpha ([2]; peptide concentration 1 uM) | phosphorylation by PKC alpha ([2]; peptide concentration 10 uM) |
| --- | --- | --- | --- | --- | --- | --- |
| 112 (KRPGKKGSNKRPGKR) [compound 112] | 17% | 10% | – | – | – | – |
| 158 (VQMTWSYPDEKNKRASVRRR) [compound 158] | – | – | 19 | 23 | 16 | 11 |
| 96 (RGFLRSASLGRRASFHLE) [compound 96] | 21% | 40% | – | – | – | – |
| 135 (KKKFRTPSFLKKSKK) [compound 135] | – | – | 30 | 36 | 56 | 19 |
| 164 (TEGKMARVAWKGKRRSKARK) [compound 164] | – | – | 24 | 20 | 6 | 6 |
| 138 (EYLERRASRRRAV) [compound 138] | – | – | 34 | 39 | 17 | 20 |
| 115 (NRKKKRTSFKRKA) [compound 115] | – | – | 89 | 77 | 55 | 56 |
| 95 (KKKFRTPSFLKKSKK) [compound 95] | 42% | 34% | – | – | – | – |
| 136 (RARRDSLKKIEIW) [compound 136] | – | – | 42 | 28 | 26 | 28 |
| 141 (VTDSQKRREILSRRPSYRKI) [compound 141] | – | – | 29 | 28 | 24 | 25 |
| 161 (KYKAFIRIPIPTRRHTFRRQ) [compound 161] | – | – | 19 | 23 | 22 | 8 |
| 102 (AGSFKRNSIKKIV) [compound 102] | 28% | 35% | – | – | – | – |
| 99 (AGWRKKTSFRKPKED) [compound 99] | 25% | 37% | – | – | – | – |
| 160 (PFEVVWYKDKRQLRSSKKYK) [compound 160] | – | – | 19 | 25 | 9 | 7 |
| 80 (KKKKKRFSFKKSFKL) [compound 80] | 63% | 65% | – | – | – | – |
| 124 (PRLIRRGSKKRPAR) [compound 124] | – | – | 53 | 57 | 48 | 24 |
| 130 (EYLERRASRRRAV) [compound 130] | – | – | 38 | 44 | 38 | 38 |
| 126 (KAIKAIEGGQKFARKSTRRS) [compound 126] | – | – | 46 | 45 | 36 | 34 |
| 106 (EILSRRPSYRKILND) [compound 106] | 19% | 23% | – | – | – | – |
| 118 (RPQNTLKASKKKKRASFKRK) [compound 118] | – | – | 67 | 52 | 46 | 60 |
| 145 (ISDFGLAKKLAVGRHSFSRR) [compound 145] | – | – | 27 | 25 | 21 | 30 |
